Assay results taken from patent US6861578B1, “Method for plant protection against insects or nematodes by transformation with a nucleic acid encoding equistatin” (Plant Research International B.V., priority 1997, dated 2005).

Key:
[1] = target: potato protease inhibitor-insensitive cysteine proteases of Colorado potato beetle (Leptinotarsa decemlineata) larval gut extracts; assay: cell-based or functional assay
[2] = target: proteases in extracts of adult leafminer flies (Liriomyza trifolii); assay: cell-based or functional assay
[3] = target: proteases in extracts of adult western flower thrips (Frankliniella occidentalis); assay: cell-based or functional assay
[4] = target: T1, papain (UniProt P00784 134-345); assay: continuous rate enzyme inhibition assay with papain
T1 construct: also called cysteine proteinase, papain
T1 sequence (looked up): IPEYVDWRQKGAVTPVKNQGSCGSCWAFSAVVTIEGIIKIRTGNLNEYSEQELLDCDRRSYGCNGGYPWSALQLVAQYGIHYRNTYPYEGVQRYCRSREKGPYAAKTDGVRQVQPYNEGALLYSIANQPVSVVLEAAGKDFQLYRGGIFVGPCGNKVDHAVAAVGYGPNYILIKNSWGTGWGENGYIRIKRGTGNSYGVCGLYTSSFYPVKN

[5] = target: T1, papain; assay: continuous rate enzyme inhibition assay with papain; Ki = kd/ka
[6] = target: T2, cathepsin D (Homo sapiens, UniProt P07339); assay: active site titration of cathepsin D with equistatin (FIG. 12)
[7] = target: T2, cathepsin D; assay: steady state inhibition of cathepsin D hydrolysis of chromophoric substrate
[8] = target: Colorado potato beetle larval gut proteases (total gut extract, pH 3); assay: cell-based or functional assay
[9] = target: western corn rootworm (Diabrotica virgifera) third instar larval gut proteases; assay: cell-based or functional assay
[10] = target: T1, papain; assay: papain titration in microtiter plate, Z-Phe-Arg-pNA substrate
Method: In a microtiterplate 20 µl papain solution (a fresh solution of 1 mg/ml (Sigma) in MES buffer titrated with E-64 to determine the active fraction, usually 17%) is combined with 0–80 µl of known protein concentration. MES buffer (50 mM MES, pH 6.5; 0.6 mg/ml L-cysteine; 1 mg/ml BSA fraction V) is added to a final volume of 150 µl. The mixture is incubated for 30 min at room temperature and subsequently 50 µl of substrate solution (60 µl of 15 mg/ml Z-Phe-Arg-pNA dissolved in methanol is diluted in 940 µl MES buffer before use). The plate is immediately placed in the nicrotiterplate reader and measured at 405 nm. Readings up to an OD600 of 0.3 are linear. Rates of change are used to determine the activity with increasing amounts of inhibitor. Results are graphically represented and at stoichiometric concentrations the amount of dissociated complex is determined to determine the apparent equilibrium dissociation constant (Ki). […] The apparent equilibrium dissociation constant for papain was estimated to be 0.6 nM in agreement with the data published for the purified protein (Lenarcic et al. (1997) J. Biol. Chem. 272: 13899–13903.

B1: equistatin, isolated from sea anemone Actinia equina (protein)
chain: SLTLCGGLGASAASGLIGTTVPGCLGTGGPGGLGCTGSTGTCTCVAGAGLGILGTLIAGSPACSAALAALTLCGMMGAIIVAVPGTCGPPSCLAAGSPAGVGCCASAGGCTCVALLGLGLGGTAGGGAPTCGAHLSGCGGAAILAHSASLAVGMPVPGCLGAGSTAPVGCTPSTGTCTCVAGGGVLVPGSAVAPLAPTC
- residual amino-peptidase activity (L-Arg-pNA), equimolar inhibitor (% of residual activity) [1]: 85
- residual amino-peptidase activity (L-Arg-pNA), excess inhibitor (% of residual activity) [1]: 75
- residual broad spectrum endoprotease activity (Z-Phe-Arg-pNA), equimolar inhibitor (% of residual activity) [1]: 30
- residual broad spectrum endoprotease activity (Z-Phe-Arg-pNA), excess inhibitor (% of residual activity) [1]: 20
- residual general proteolytic activity (azocasein) in excess of inhibitor (% residual activity) [1]: 10
- residual narrow spectrum endoprotease activity (Z-Arg-Arg-pNA), equimolar inhibitor (% of residual activity) [1]: 20
- residual narrow spectrum endoprotease activity (Z-Arg-Arg-pNA), excess inhibitor (% of residual activity) [1]: -5
- residual tri-peptidil-peptidase and endoprotease activity (pGlu-Phe-Leu-pNA), equimolar inhibitor (% of residual activity) [1]: 10
- residual tri-peptidil-peptidase and endoprotease activity (pGlu-Phe-Leu-pNA), excess inhibitor (% of residual activity) [1]: -5
- residual protease activity (FITC-hemoglobin), pH 3.5 (% residual activity) [2]: 24
- residual protease activity (FITC-hemoglobin), pH 3.5 (% residual activity) [3]: 5
- koff [4]: 0.0065 s⁻¹
- kon [4]: 1.2e+07 M⁻¹ s⁻¹
- Ki [5]: 570 pM
- binding stoichiometry (mol equistatin per mol cathepsin D) [6]: 1
- Ki [7]: 300 pM

B2: recombinant equistatin (expressed in E. coli from pB3-equistatin, purified on papain-sepharose) (other, not shown: large carriers; small tags and cut ends)
chain: SLTKCQQLQASANSGLIGTYVPQCKETGEFEEKQCWGSTGYCWCVDEDGKEILGTKIRGSPDCSRRKAALTLCQMMQAIIVNVPGWCGPPSCKADGSFDEVQCCASNGECYCVDKKGKELEGTRQQGRPTCERHLSECEEARIKAHSNSLRVEMFVPECLEDGSYNPVQCWPSTGYCWCVDEGGVKVPGSDVRFKRPTC
notes: also called EI
- inhibition of total protease activity (FITC-hemoglobin), pH 3 [8]: 62 % inhibition
- residual protease activity (FITC-hemoglobin), pH 3 (% residual activity) [8]: 36
- residual protease activity (FITC-hemoglobin), pH 3 (% residual activity) [9]: 2
- residual protease activity (FITC-hemoglobin), pH 6.5 (% residual activity) [9]: 7
- Ki [10]: 600 pM
